# B1: SSAP_242: SEQ ID NO: 411; Lactococcus sp. S-13 (protein, listed as Lactococcus sp.)
# chain: SNQITKTQQTLKSPEVKAKFEEVLGKKADGFVASLLSVVGNSNLKTVEANSVMTAAMKAATLDLPIEPSLGFAYVIPYGREAQFQIGYKGFIQLALRSGQLTGLNCGIVYESQFVSYDPLFEELELDFTQQASGDAVGYFASMKLANGFKKVTYWSKEQVLAHKKKFVKSANGPWRDHFDAMAQKTVLKAMLTKYAPASIESKMIQTAITEDDSERFENAKDVTPDEPVISIDEPVTSEVSQNESSAESQEQFPEDEVEELFPIGKS
# B2: SSAP_81: SEQ ID NO: 250 (protein)
# chain: TDVKQELERKVGKQDSTAVRLTKNMSIPDMIKALEPEIRRALPAVLTPERFLRMALSAVNNTPKLAECTPMSFIAAMMNAAQLGLEPNTPLGQAYLIPYKNKNQLECQFQIGYKGIIDLAYRTGQMQMIQAHAVHEFDDFEYEYGLNPKLIHRPGDGNRGEITYFYGLFKLVNGGFGFEVMNREAMEAFAQQYSQSYGSQYSPWVKNFEDMAKKTVIKKALKYGPVKAEFQKAISMDETIKTEIAVDMTEVQNEESE
# B3: SSAP_257: SEQ ID NO: 426; Listeria (multispecies) (protein, listed as Listeria sp.)
# chain: ATNDELKNQLANKQNGGQVASAQSLDLKGLLEAPTMRKKFEKVLDKKAPQFLTSLLNLYNGDDYLQKTDPMTVVTSAMVAATLDLPIDKNLGYAWIVPYKGRAQFQLGYKGYIQLALRSGQYKSINVIEVREGELLKWNRLTEEIELDLDNNTSEKVVGYCGYFQLINGFEKTVYWTRKEIEAHKQKFSKSDFGWKKDYDAMAKKTVLRNMLSKWGILSIDMQTAVTEDEAEPRERKDVTEDESIPDIIDAPITPSDTLEAGSEVQGSMI
# B4: SSAP_145: SEQ ID NO: 314; Roseburia sp. CAG: 182 (protein, listed as Roseburia sp.)
# chain: DVKEELAKMAEEKPTKKLTKSMSIQDMIKVIEPEIKKALPSVLTPERFTRMALSAINNTPKLAECSQISFLAALMNAAQLGLEPNTPLGQAYLIPFQNKGKLECQFQIGYKGIIELVYRNPLIQTIQAQVVYENDEFEYELGLNSRLFHRPALYDRGETVLFYALFKMSNGGYGFEVLSKQDMDAYAKRYSKGISSEYSPWKSNYEEMAKKTMIKKVLKYAPIRTDFQKAVSMDESIKKELSVDMSEVSNENIIDMEEITQEEE
# B5: SSAP_314: SEQ ID NO: 483; Ferrimonas kyonanensis (protein, listed as Ferrimonas kyonanensis)
# chain: NQMINEPDFVTALKDSRETYIDLTQNGGFNLNYGLEAGWAHQQIEASRYQNLDLTCSEPGSIMQAFCEAARLGLSFDPRKKHIYLMGQKDVQSGRTITILYVGYKGMIALACRTGFMIGGHADLVFEEDTFTYRSGTQLPVHEHDGRPNHERGRLKCGYVVAHQPGGMVKTLLVPKEVLLEAASNGLNAGGSNNTWCGPYMEMMYQKTCWRYAFNAWYSELEAVGMTQAQLESATTAVSYQ
# B6: SSAP_32: SEQ ID NO: 201 (protein)
# chain: EFETDEEEKEMSNNQLSTQQAKRDIAIDTSVWTFQDVKRYFDPQNLLTEKQVGQALSLIKGRNLNPLANEVYIVAYKKKTGGTEFSLIVSKEAFLKRAAQNPNYEGFEAGVVTVDTDGVMHERKGALMLPGDTLVGGWARVYRKNFKVPVEIFVSREEYDKKQSTWNAMPATMIRKTALVNALREAFPEDLGNMYTEDDGGETFDRIKQAEPVESREDVMARKMAQIEQMKQEQAQRQIDTSYPTDDVIDPDDEPAQGELLEDLEY
# B7: SSAP_129: SEQ ID NO: 298; Lacrimispora indolis (protein, listed as Lacrimispora indolis)
# chain: SDVKQELEKRAAGGGGQSQSVRLTKNMTIVDMVKALEPEIKRALPSILTPERFTRMALSAINNTPKLGECTPMSFIAALMNAAQLGLEPNTPLGQAYLIPYKNKGVLECQFQLGYRGLIDLAYRNERMQSVEAQVVYENDEFSYELGLHPSLIHRPSFDEPGEIRAFYAIFRLDNGGFRFEVMSKSYVDAYAARYSKAFTSDFSPWKSNYEGMAKKTVIKQLLKYAPMKSEFQKAVTMDETIKTELSVDMSEVSNQEVIDRELTEQVA
# B8: SSAP_319: SEQ ID NO: 488; Helicobacter trogontum (protein, listed as Helicobacter trogontum)
# chain: SNITTIQRKNEALALLENKEIQERLCALCGNEASKDKFKASLLNIALDSNLSACSMQSIVKASLDIAGLKLSLNKNLGKAYIVPRKVKIGNDYITEARIDIGYKGWLELAKRSKLSVKAHSVFDCDDFVYSVDGVDEYMKLTPNFELRQEHDSAWVKEHLKGIVVGIKDLKSGDSEVKFVSKGTLLKIMQKNDSVKNGKYSAYTDWLHEMLLAKAIKSCLSKTAMSEDTFYLIISNNKLFI
# B9: SSAP_274: SEQ ID NO: 443; Clostridium liquoris (protein, listed as Clostridium liquoris)
# chain: TTASELKNQLATRKETGVGSAGNTVKGLLESPAIKKRFEEVLKQRAPQYMSSIVNLVNGDANLKKCDQMSVIASCMVAATLDLPVDKNLGYAWVVPYGNKAQFQLGYKGYVQLALRTGQYKSINVIEIHEGELIEWNPLTEELRIDFEKKKSDAIIGYAGYFELINGFRKSTYWTKEQITKHKNKFSKSDFGWKKDFDAMAKKTVLRNMLSKWGILSIEMQNAYTADQETIKSEVLETGNIKENVEYVEADFDVDFEGTPFEEGVTNE
# B10: SSAP_54: SEQ ID NO: 223; Bet Pseudomonas phage PS-1 (protein, listed as Pseudomonas sp.)
# chain: SNVATIKPSSLSARMAERFGVDPNEMMATLKATAFKGQVSDAQMQALLIVADQYGLNPWTKEIYAFPDKGGIVPVVGVDGWSRIINENGAFDGMDFQQDDESCTCIIYRKDRNHPIKVTEWMAECKRNTQPWQSHPKRMLRHKAMIQCARLAFGYTGIFDEDEAQRIVEKDVTPAVNEPDITPALEAIKNASSMEELHAAFKAAWNQHPSARARLTAVKDERKKALSEPIEGELVENEDGPAQQ
# B11: SSAP_101: SEQ ID NO: 270; Halomonadaceae bacterium R4HLG17 (protein)
# chain: SEVATQDTLGKELQQHSGQQKKPMPTTIQGMLKDPRFTSQIARALPKHITPDRITRIALTEVNKTPALGKCDPVTLFGSIIQSAQLGLELGGALGHAYLVPYGNQAQFIIGYRGMIDLARRSGQMVSLQAHTVHDNDEFDFEYGLDEKLRHVPARGDRGPMVAVYSVAKLVGGGHQIEVMWKEDVDAIRSKSKAGNSGPWRDHYEEMAKKTAIRRLFKYLPVSVEMQKAVALDEQAEAGVQDNNVFDGEFSYGEAE
# modifications: Halomonadaceae bacterium R4HLG17
# B12: SSAP_165: SEQ ID NO: 334; Robinsoniella sp. KNHs210 (protein, listed as Robinsoniella sp.)
# chain: TTRTGNIKEELAKKAEGTNGDTRLTKAMSIADLIKAMEPEIKKALPEVITPERFTRMALSALNTTPKLRECTQISFLAAMMNAAQLGLEPNTPLGQAYLIPFNNKGTMECQFQIGYKGMIDLSYRNPQMQMISAQAVYENDEFKYELGLNPTLIHRPVLRGRGEVILFYGLFKLTNGGYGFEVMSKEEMDAYAKAYSKAIDSSFSPWKSNYNGMAKKTVIKQVLKYAPIKADFRKALSSDETIKNEISENMSEIHGEIIFDTDYMEESA
# B13: SSAP_68: SEQ ID NO: 237 (protein)
# chain: TQQMPIEAQGEPTKELQQKAAVDRFNATLHQMQNEIARALPKHMTGDRFVRIVLTEVRKDPTLALCDPLTMFGSLLTAAALGLEPGLNGECWLVPRKNHGTLEAQLQVGYRGVVKLFWQNPAAAYLDTGYVCERDHFRFAKGLNPILEHTPAEGDRGKVVRYYAVAGLNTGARVFDVFTPAQIKTLRGGKVGSNGDIPDPEHWMERKTALLQVLKLMPKSTQLAAVPAADGRAHTISDAQQIFGGVDTSTGEVLEAEPVEGDAA
# Tested on: gene editing with Cas9
# Assay: Screen of 322 new SSAP proteins, gene editing activity with Cas9 (Table 5)
# Format: cell-based
# Parameters: Cas9 with SSAP activity: scale not given here
# Conditions: not given
# Method in brief: (§1)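 First, 322 new single-strand annealing proteins are identified from sequences. Next they are synthesized. Finally each is assayed for editing in combination with Cas9 and, separately, dCas9.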
row,Molecule,Cas9 with SSAP activity
1,B1,2.358
2,B2,−2.257
3,B3,0.216
4,B4,−0.211
5,B5,0.114
6,B6,−0.435
7,B7,0.031
8,B8,0.742
9,B9,0.280
10,B10,−0.011
11,B11,−1.798
12,B12,−0.918
13,B13,1.110

# Same assay, conditions: normalized
row,Molecule,Cas9 with SSAP activity (normalized)
1,B1,1.579
2,B2,−0.341
3,B3,0.821
4,B4,−0.214
5,B5,0.106
6,B6,−1.203
7,B7,0.019
8,B8,1.773
9,B9,0.259
10,B10,−0.061
11,B11,−0.307
12,B12,−0.925
13,B13,4.696

# Tested on: gene editing with dCas9
# Assay: Screen of 322 new SSAP proteins, gene editing activity with dCas9 (Table 5)
# Format: cell-based
# Parameters: dCas9 with SSAP activity: scale not given here
# Conditions: not given
# Method in brief: as §1
row,Molecule,dCas9 with SSAP activity
1,B1,3.640
2,B2,−2.360
3,B3,−2.649
4,B4,−2.440
5,B5,−2.593
6,B6,−2.180
7,B7,−2.431
8,B8,−2.508
9,B9,−2.423
10,B10,−2.517
11,B11,−2.273
12,B12,−2.157
13,B13,−2.230

# Same assay, conditions: normalized
row,Molecule,dCas9 with SSAP activity (normalized)
1,B1,2.062
2,B2,−0.367
3,B3,−1.189
4,B4,−0.309
5,B5,−0.657
6,B6,−0.281
7,B7,−0.313
8,B8,−0.276
9,B9,−0.328
10,B10,−0.565
11,B11,−0.413
12,B12,−0.568
13,B13,−0.296

# Tested on: gene editing with Cas9 and dCas9
# Assay: Screen of 322 new SSAP proteins, activity across all experiments (Cas9 and dCas9, Table 5)
# Format: cell-based
# Parameters: scale not given here
# Conditions: not given
# Method in brief: as §1
row,Molecule,Activity across all experiments
1,B1,2.999
2,B2,−2.308
3,B3,−1.217
4,B4,−1.325
5,B5,−1.240
6,B6,−1.308
7,B7,−1.200
8,B8,−0.883
9,B9,−1.072
10,B10,−1.264
11,B11,−2.036
12,B12,−1.538
13,B13,−0.560
